Assay results as given in the DeepSol protein solubility set.

Assay: soluble on expression in E. coli; label from the status in PepcDB or PDB records

| Sequence | soluble on expression in E. coli |
| --- | --- |
| MSLTELPRIISVDDHVIEPAHLFETWLPKKYRDRGPKPLTAGIGELAYVGGKYQITMDPKGPPTDWWIYEDLKFPYKRNIAAVGFDRDEMTLEGITRAEMRRGCWDPVERLKDMDANHVEGSLCFPTFPRFCGQTFAEAHDKEVALACVRAYNDWMVEEWCGDSGGRLIPLCLIPLWDIGLAVAEIRRNAARGVKAVTFSEIPTHLGLPSIHSGYWDPFFAVCQETGTVVNMHIGSSSQMPAASPDAPPAVQAALSFNNAMASMMDFLFSGVLVKFPRLKLAYSEGQMGWIPYALERADDVWEEHRAWGGVRDLIPEPPSTYYYRQIFCCFFRDKHGVASIDVVGRDNATFETDYPHVDSTFPHTKEVALDHVEGLDDETVYKLMRGNAIRMLDLDLDRDLDHLGNRDHLGARDTLSSRDKADREGHHHHHH | soluble |
| MAHHHHHHVDDDDKMFSTQVNSSLTSPTGRGSMAAPSLHPSLGPGIGSPGQLHSPISTLSSPINGMGPPFSVISSPMGPHSMSVPTTPTLGFSTGSPQLSSPMNPVSSSEDIKPPLGLNGVLKVPAHPSGNMASFTKHICAICGDRSSGKHYGVYSCEGCKGFFKRTVRKDLTYTCRDNKDCLIDKRQRNRCQYCRYQKCLAMGMKREAVQEERQRGKDRNENEVESTSSANEDMPVERILEAELAVEPKTETYVEANMGLNPSSPNDPVTNICQAADKQLFTLVEWAKRIPHFSELPLDDQVILLRAGWNELLIASFSHRSIAVKDGILLATGLHVHRNSAHSAGVGAIFDRVLTELVSKMRDMQMDKTELGCLRAIVLFNPDSKGLSNPAEVEALREKVYASLEAYCKHKYPEQPGRFAKLLLRLPALRSIGLKCLEHLFFFKLIGDTPIDTFLMEMLEAPHQMT | soluble |
| MGSDKIHHHHHHMSEAFLRFDGISVEFPGVKALDEVSFSARAGEVHALMGENGAGKSTLLKVLSGVNRPSSGQLWIDGQAHVFANAREALAHGIAIIYQELTLSPNLSVAENLLLGQLPERRGFIDRRTMKARAREILEELGEGDIDPATKVRELSIGQQQMIEIGRALLRDARIIAFDEPTSSLSVQETRQLKRIVARLRDEGRVVLYVTHRMEEVFEMCDAVTVFRDGRHIRTHETLEGLDHDMLVGEMVGRQIDDVYGFRPRDIGDVLMRIDGLQGRGVNEPVNLEVRRGEVLGLFGLVGAGRSELMRLVCGVEKASRGQVALRGETRVFASPHQAIRAGIAMCPEDRKSQGIFPVASVSDNLNISCRRFFRRWGMFRHAARETDNAKTYIQRLSIKTPSHRTPINTLSGGNQQKVILGRWLAEEIDLFVMDEPTRGIDVGARRDIYALLYDLAEQGKGVIVISSDLAEVSSICDRIGVMRDGVLVDIVPREQATQARLLGLALPA | not soluble |
| ANKNKGFEGVAWDPRRQQLLLGEERPPALYTWKSDGSNVLKGDKQSLLSRALDMRNLSSLSIDPRTGHMLALSADSHMLLEVDEQGNQVSFMTLLGGMNGLKD | not soluble |
| RKYAFEDVFRVGREDVNEMADRILNSLSSYKPRVGCIAFSGGVDSSLLAALYDAPLVSVTASDAEEEWLKTAARMLGKEIEILKVGESAIREVVDTVRKTIETGDFLQLSIAVPVYLTMQFAKSLGFTEIIFGQGADELFGGYKRYEGLSEHELEDALVKDLKSIGESNLVRDCKLAYKNEIKLVTPYLCWDVIDAALKIPPEYKVRREGGKVVRKYILRKIAEKFLPEEIAWRDKKAIQYSTGIAKI | not soluble |
| MRGSHHHHHHGSDLGKKLLEAARAGQDDEVRILMANGADVNAEDTYGDTPLHLAARVGHLEIVEVLLKNGADVNALDFSGSTPLHLAAKRGHLEIVEVLLKYGADVNADDTIGSTPLHLAADTGHLEIVEVLLKYGADVNAQDKFGKTAFDISIDNGNEDLAEILQ | soluble |
| GVKCEPIEELTISVPEEYSSKMIDMVTRRKGDLVSMETQGDRVNIEFDMPSRGIIGLRTNVLTASAGEAIMAHRFKCYQPYKGEIERRSNGSMIAMESGTAFAYAIDKLQDRGKFFIYPQDEVYAGQV | not soluble |
| MPTIQQLVRKGRRDKISKVKTAALKGSPQRRGVCTRVYTTTPKKPNSALRKVARVKLTSQVEVTAYIPGEGHNLQEHSMVLVRGGRVKDLPGVRYKIIRGSLDTQGVKNRKQARSRYGAKKEKG | not soluble |
| MDWIESVKSYIKVVEEGSFNAAAYQLNTSGSAISKRINWLEERVGVQLLTRTTRSVHQTEAGLLFYQRARLQLDQWQHLVDETRAINQTPAGLLKIGATLAVGSKFIIKYLDEFLATYPKIKVQLITTLPGQVPEHNVDVFISRELEQLNTFSYKATHLFEHHSGFFASKDYLDKYGTPNNINELKAHNMLIWGERPIKEIKLTNNKRVTLRGNFATTNPEALFHAAKRGMGILLTSQQMVIDDLQSGALVPILPEITTDHTRVNAYYPTLDYEHTRTQLFIKYLKTKLS | not soluble |
| MPPKTRKTKKEDVEEEAVEEILEETKPAKLPESDESYSRKVVISKEGNLPNSRIIKLRHPKEGLALFRISETCFDEIFAVNDGHRSFFYGESVIENGTIHIFTPYNLVFICLPYLQKTAGKFVEIGEILVDDQVDGIKELAENERILKALEAVSDVKDVLDVKLYRLNDQKMLDWMRRKFDSLKKLLESDAHKSLLSCPEAFDRYVFTFLSEYLSSDLALIVKDHLNIQDATVSENIDMSMKRKAVDDDELEDKKQPVAKKPKESVQSKKLQAASKGTKSISSFFGKKSA | soluble |
| MGSDKIHHHHHHMKFNIKSVKNYRLPMSWQHIQKGTMYCSLINEFFADWFQKVLGDQWLMIGGLSAELELNLPLRHKIILMPEMTKNPTALFPANQNVTEEISLIQADPLQLPFVQQSIHACVLANTLNFTQHSHQLLGEIARVLENDGYLFISLFNPYSPLIFKQNLNHKNQTALPFKQYFTWRILDWIKLLNFEILDQVNLSEKKQQDCFSPLTLIVAQKRTYPFPLYKIKNKIVPYQSFQFMGENTKNAT | not soluble |
| MGSDKIHHHHHHMNAETPQNLMVASLQAPPVRTVVADPQSVHAAIESRFCCREFLADPVERETMERILRVASWAPSGSNNQPWKVYVVQGASRAALSQKVRAAQDALSQDPTLADNYREPYQYYPVEWVSPYIERRRACGFGLYGVLNIARGDRVRMNEQLLRNFDFFGAPVGIFFTNDEILAEGALVDTAMFVQNVMLAARAEGLHTCVQAAWNRFSSVVLPHIGAQGERLVCALALGHADVDAPVNTFRPDRADPASFTAWLD | not soluble |
| MATQQPALVLDPTGADHHTEHRTLREGGPATWVDVLGVQAWSVSDPVLLKQLLTSSDVSKDARAHWPAFGEVVGTWPLALWVAVENMFTAYGPNHRKLRRLVAPAFSARRVDAMRPAVEAMVTGLVDRLAELPAGEPVDLRQELAYPLPIAVIGHLMGVPQDRRDGFRALVDGVFDTTLDQAEAQANTARLYEVLDQLIAAKRATPGDDMTSLLIAARDDEGDGDRLSPEELRDTLLLMISAGYETTVNVIDQAVHTLLTRPDQLALVRKGEVTWADVVEETLRHEPAVKHLPLRYAVTDIALPDGRTIARGEPILASYAAANRHPDWHEDADTFDATRTVKEHLAFGHGVHFCLGAPLARMEVTLALESLFGRFPDLRLADPAEELPPVPSLISNGHQRLPVLLHAG | soluble |
| MAIIFNPNKKIFTLQTAHTTYQMQVDRLGYLLHLYYGAKSTCDMDYVLTYADRGFSGNPYAAGMNRTYSLDTLPQEYPTLGTGDFRNIALDIKNEQGTESVELLYKSYEIRDGKYALKGLPAVWASDDEAQTLEIVLGDDIAGVEVHLLYGVLEACDVITRSVLIKNTGSGNITIEKAHAACLDMVYGDYDVIRFYGKHAMERNLERTHLGHGTLSFGSRRGTSSHQYNPAVILAQRDTTENAGDCYGMLFVYSGNFSCEAEKDQINQTRLLMGLSDELFSYPLAAGETFTVPEVIMSYSADGFSQLSHQYHTCISEHVCRSRFAHEVRPVLINSWEAAYFDFTGDTIVDLAKEAASLGIDMVVMDDGWFGKRDDDNSSLGDWFVNEKKLGGTLSELIDRVHAQGVKFGIWIEPEMVNEDSNLYREHPDWAIQIPGKLPVRSRNQLILDFSRKEVRDNIFNQICAVFDQGKIDYVKWDMNRSMADVYAGNLAYDYVLGVYDFMERLVTRYPDILLEGCSGGGGRFDAGMLYYSPQIWCSDNTDAINRTRIQYGTSFFYPVSSMGAHVSAVPNHQTGRVTSLKTRGITAMAGTFGYELNPALLSDEEKEEIREQIKTFKKYEMLINEGTYWRLTSPFEDEVAAWMSVSRTKDRALVSVVRLYAEANAAACYVKLKGLESDAVYIEENTGRQYTGAALMNAGIPLPFAVKEYEAYQFSFIRLDEAKKLYDEIKKVCGNLKLNEADTADSASDNRLEHHHHHH | soluble |
